# Test results published in PMC6091870 (Cell reports, 2018).
# B1: ACAD9, Q8JZN5 42-625 (enzyme)
# chain: SFAKELFLGNIEQKGVFPFPEVSQHELSEINQFVGPLEKFFTEEVDSRKIDQEGKIPVDTLEKLKSLGLFGIQVPEEYGGLGLSNTMYARLGEIISLDASITVTLAAHQAIGLKGIILVGNEEQKAKYLPKLSSGEHIAAFCLTEPASGSDAASIQTRATLSEDKKYFILNGSKVWITNGGLANIFTVFAKTEVVDSDGSKTDKMTAFIVERDFGGITNGKPEDKLGIRGSNTCEVHFENTRVPVENVLGEVGGGFKVAMNILNSGRFSMGSAVAGMLKKLIELTAEYACTRKQFNRNLSEFGLIQEKFALMAQKAYVMESMAYLTSGMLDQPGFPDCSIEAAMVKVFSSEAAWQCVSEALQILGGSGYMKDYPYERMLRDARILLIFEGTNEILRLFIALTGLQHAGRILTSRIKELKSGNVTTVMETIGRKLRDSLGRTVDLGLTGDLGVVHPSLGDSANKLEENVHYFGRTVETLLLRFGKNIVEEQLVLKRVANILINLYGMTAVLSRASRSIRIGLRNHDHEVLLANMFCVEAYFQNLFSLSQLDKNAPENLDEQIKKVSRQILEKRAYICAHPLDRAS
# B2: oxoglutarate dehydrogenase (OGDH) (enzyme, mouse (endogenous in mouse heart), UniProt Q60597 41-1023, looked up)
# chain: SAPVAAEPFLSGTSSNYVEEMYCAWLENPKSVHKSWDIFFRNTNAGAPPGTAYQSPLSLSRSSLATMAHAQSLVEAQPNVDKLVEDHLAVQSLIRAYQIRGHHVAQLDPLGILDADLDSSVPADIISSTDKLGFYGLHESDLDKVFHLPTTTFIGGQEPALPLREIIRRLEMAYCQHIGVEFMFINDLEQCQWIRQKFETPGIMQFTNEEKRTLLARLVRSTRFEEFLQRKWSSEKRFGLEGCEVLIPALKTIIDMSSANGVDYVIMGMPHRGRLNVLANVIRKELEQIFCQFDSKLEAADEGSGDMKYHLGMYHRRINRVTDRNITLSLVANPSHLEAADPVVMGKTKAEQFYCGDTEGKKVMSILLHGDAAFAGQGIVYETFHLSDLPSYTTHGTVHVVVNNQIGFTTDPRMARSSPYPTDVARVVNAPIFHVNSDDPEAVMYVCKVAAEWRNTFHKDVVVDLVCYRRNGHNEMDEPMFTQPLMYKQIRKQKPVLQKYAELLVSQGVVNQPEYEEEISKYDKICEEAFTRSKDEKILHIKHWLDSPWPGFFTLDGQPRSMTCPSTGLEEDVLFHIGKVASSVPVENFTIHGGLSRILKTRRELVTNRTVDWALAEYMAFGSLLKEGIHVRLSGQDVERGTFSHRHHVLHDQNVDKRTCIPMNHLWPNQAPYTVCNSSLSEYGVLGFELGFAMASPNALVLWEAQFGDFNNMAQCIIDQFICPGQAKWVRQNGIVLLLPHGMEGMGPEHSSARPERFLQMCNDDPDVLPDLQEENFDINQLYDCNWIVVNCSTPGNFFHVLRRQILLPFRKPLIVFTPKSLLRHPEARTSFDEMLPGTHFQRVIPENGPAAQDPHKVKRLLFCTGKVYYDLTRERKARNMEEEVAITRIEQLSPFPFDLLLKEAQKYPNAELAWCQEEHKNQGYYDYVKPRLRTTIDRAKPVWYAGRDPAAAPATGNKKTHLTELQRFLDTAFDLDAFKKFS
# Key:
# [1] = target: T1, ACAD9 (mouse (endogenous in mouse heart)), Q8JZN5; assay: native gel or EMSA; details: remark: other sources report otherwise
# T1 chain: B1 chain
# native gel or EMSA = target: the molecule itself; assay: native gel or EMSA
Binder,stoichiometry N [1],stoichiometry N (native gel or EMSA)
B1,2,–
B2,–,2
